# Read-outs that look alike come from different tables or passages of the source. Starred links: 1 amine or outer side, 2 acyl side, 3 side chain; linkers in the order of their positions; H or OH if unused. Non-standard residues stand in square brackets, D forms with d. Residues, ends and D or L forms follow the SMILES beside them. No end group written: not given here. X1 = O=C([C@H](CC1C=NC=N1)N[*:1])[*:2]
# Assays:
# human wild-type p53 = target: T1, human wild-type p53 (Homo sapiens, UniProt P04637); assay: p53 DNA binding assay: activation of DNA binding of wild-type p53; type: biochemical; conditions: for potency in activating DNA binding relative to p53p373-383: 0.4 mM; for activation of binding of wild-type p53: peptide 0.4 mM
# T1 construct: Plasmid pGEMhump53wt encodes full-length human wild-type p53; made in house; host or cells: cell-free in vitro transcription and translation from pGEM4-based plasmid
# p53 mutant His273 = target: T2, p53 mutant His273 (Homo sapiens, UniProt P04637, R273H); assay: p53 DNA binding assay: activation of DNA binding of mutant His273; type: biochemical; conditions: oligonucleotide BC
# T2 construct: made in house; host or cells: cell-free in vitro transcription and translation from pGEMhump53His273
# Method: (§1) The ability of the peptides of this invention to activate DNA binding of human p53 was assayed using a standard DNA binding assay for p53 [Halazonetis et al. (1993), cited above; Halazonetis and Kandil (1993), cited above]. This assay utilizes in vitro translated human wild-type p53 or tumor-derived p53 mutants and specific oligonucleotides containing p53 binding sites. These reagents and methods for preparing them are described below.
# Plasmid pGEMhump53wt was used to generate plasmids encoding mutant p53 proteins frequently associated with human cancer. The mutations introduced are those that are most frequently associated with human tumors [Caron de Fromentel et al. (1992), Genes Chrom. Cancer, 4: 1-15]. […]
# Plasmids of the pGEMhump53 series were used to produce in vitro transcribed mRNA and subsequently in vitro translated protein, according to standard procedures [Halazonetis et al. (1988), Cell, 55: 917-924]. […] Thus, the presence of slowly migrating DNA, which can be detected by autoradiography, indicates p53 DNA binding [Halazonetis et al. (1993), cited above; Halazonetis and Kandil (1993), cited above]. […]
# oligonucleotide BC.V4A = assay: DNA binding assay of in vitro translated p53 deletion mutants (gel shift)
# Method: as §1
# Plasmids of the pGEMhump53 series were used to produce in vitro transcribed mRNA and subsequently in vitro translated protein, according to standard procedures [Halazonetis et al. (1988), Cell, 55: 917-924]. The in vitro translated proteins were assayed for DNA binding, as previously described [Halazonetis et al. (1993), cited above, and incorporated herein by reference]. Briefly the in vitro translated protein is incubated with a radioactively labeled oligonucleotide containing a p53 binding site in the presence of non-specific competitor DNA. The reaction mixture is incubated 20 min. at room temperature and directly loaded on a native 5% polyacrylamide electrophoresis gel. In this type of DNA binding assay free DNA migrates to the bottom of the gel, whereas p53/DNA complexes migrate more slowly. Thus, the presence of slowly migrating DNA, which can be detected by autoradiography, indicates p53 DNA binding [Halazonetis et al. (1993), cited above; Halazonetis and Kandil (1993), cited above].
# As non-specific competitor DNAs we used 0.1 μg single-stranded oligonucleotide MI7 [[…], SEQ ID NO: 27] and 0.05 μg double-stranded oligonucleotide TF3 [[…], SEQ ID NO: 28] per reaction.
# A number of double-stranded oligonucleotides containing p53 binding sites were radioactively labeled for these experiments. […] These three sites are indicated below, and the specific pentanucleotide repeats recognized by p53 are demarcated by hyphens. The sequence of oligonucleotide Ewaf1 (top strand) is: CCC-GAACA-TGTCC-CAACA-TGTTG-GGG [SEQ ID NO: 29]. […]
# [1] = oligonucleotide Ewaf1, peptide 0.2-0.3 mM
compound,measurement,setting,value
C[C@H]1NC(=O)[C@H](CCCCN)NC(=O)[C@H](CCCCN)NC(=O)[C@H](CC2C=NC=N2)NC(=O)[C@H](CCCNC(=N)N)NC(=O)[C@H](CO)NC1=O (some centres unmarked) [c[SRHKKa]] (cyclo(KK[dA]SR[X1])),efficiency of activation of p53 DNA binding relative to 0.05 mM peptide p53p363-373,"human wild-type p53; peptide 0.1 mM, assay of Example 2, p53 form and oligonucleotide not stated",about two times more efficiently
Arg Ala His Ser Ser His Leu Lys Ser Lys Lys (Ac-RAHSSHLKSKK-NH2) [p53p363-373],potency in activating DNA binding relative to p53p373-383,human wild-type p53; oligonucleotide Ewaf1,somewhat more potent
same,activation of binding of wild-type p53,human wild-type p53; oligonucleotide Ewaf1,activated
Arg Ala His Ser Ser His Leu Lys Ser Lys Lys Gly Gln Ser Thr Ser Arg His Lys Lys Leu Met Phe Lys (Ac-RAHSSHLKSKKGQSTSRHKKLMFK-NH2) [p53p363-386],activation of DNA binding of wild-type p53,human wild-type p53; [1],activated
Cys Gly Gly Ser Arg Ala His Ser Ser His Leu Lys Ser Lys Lys Gly Gln Ser Thr Ser Arg His Lys Lys Leu Met Phe Lys (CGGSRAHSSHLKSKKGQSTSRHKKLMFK; also: mixed with deletion peptides lacking Gly/Phe) [p53pC360-386],activation of DNA binding of wild-type p53,"human wild-type p53; oligonucleotide BC.V4A, 0.02-0.2 mM peptide",activated
same,activation of DNA binding of wild-type p53,"human wild-type p53; oligonucleotide Ewaf1, concentration not given",activated
same,DNA binding activity of p53His273 in presence of peptide,p53 mutant His273; peptide 0.2 mM,demonstrated DNA binding activity
His Leu Lys Ser Lys Lys Gly Gln Ser Thr Ser Arg His (Ac-HLKSKKGQSTSRH-NH2) [p53p368-380],potency in activating DNA binding relative to p53p373-383,human wild-type p53; oligonucleotide Ewaf1,somewhat more potent
same,activation of binding of wild-type p53,human wild-type p53; oligonucleotide Ewaf1,activated
Lys Gly Gln Ser Thr Ser Arg His Lys Lys Leu (Ac-KGQSTSRHKKL-NH2) [p53p373-383],activation of binding of wild-type p53,human wild-type p53; oligonucleotide Ewaf1,activated
Ser Arg Ala His Ser Ser His Leu Lys Ser Lys Lys Gly Gln Ser Thr Ser Arg His Lys Lys Leu Met Phe Lys (Ac-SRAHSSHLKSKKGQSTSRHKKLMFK-NH2) [p53p362-386],activation of DNA binding of wild-type p53,human wild-type p53; [1],activated
Ser His Leu Lys Ser Lys Lys Gly Gln Ser Thr Ser Arg His Lys Lys Leu Met Phe Lys (Ac-SHLKSKKGQSTSRHKKLMFK-NH2) [p53p367-386],activation of DNA binding of wild-type p53,human wild-type p53; [1],activated
Ser Lys Lys Gly Gln Ser Thr Ser Arg His Lys Lys Leu (SKKGQSTSRHKKL) [p53p371-383],activation of DNA binding of wild-type p53,"human wild-type p53; oligonucleotide BC.V4A, peptide 0.2-0.4 mM",activated
same,DNA binding activity of p53His273 in presence of peptide,p53 mutant His273; peptide 0.4 mM,demonstrated DNA binding activity
"p53D356-393: human wild-type p53 with deletion of residues 356-393, in vitro translated",Binding of Mutant p53 to BC.V4A DNA,oligonucleotide BC.V4A,activated
"p53D364-393: human wild-type p53 with deletion of residues 364-393, in vitro translated",Binding of Mutant p53 to BC.V4A DNA,oligonucleotide BC.V4A,activated
same,Binding of Mutant p53 to BC.V4A DNA,oligonucleotide BC.V4A; listed as pGEMhump53D364-393,activates DNA binding

# From patent US6784157B2, “Peptides and peptidomimetics with structural similarity to human p53 that activate p53 function” (Bayer Corporation, priority 1995, dated 2004)
